Measurements taken from the supplement of paper PMC7125110.
± gives the standard error. Fewer inactive variants are shown than the library holds.

B1: glmS ribozyme (parent)
chain: AUAAAAGCGCCAGAACUACAGAAAUGUAGUUGACGAGGAGGAGGUUUAUCGAAUUUUCGGCGGAUGCCUCCAAA

Variants of: B1
Assay: self-cleavage kobs at 10000 uM GlcN6P; higher = faster cleavage; RNA array
Details: with glucosamine-6-phosphate
Summary of the method: (§1)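 Barcoded glmS ribozyme variants on sequenced MiSeq chips were transcribed in situ by E. coli RNA polymerase and tracked through a hybridised Cy3 probe at 37 °C. Glucosamine-6-phosphate (40 μM to 10 mM) in HEPES/KCl/Mg(OAc)2 buffer was flowed in, and tiles were imaged over ~14 h. Signals were normalised to baseline and to non-cleaving reference variants; per-tile medians were fit to one- or two-exponential decays to give kobs. kcat and KM came from weighted Michaelis–Menten fits across concentrations.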

Row | Variant | self-cleavage kobs at 10000 uM GlcN6P [s⁻¹]
1 | G7A U30G A33G U69G | 0.000162 ± 2.9e-05
2 | A36C A39U C67U | < 1e-05
3 | G7A A64G | 4.09e-05 ± 9.6e-06
4 | A6C A48U U54A C67U | < 1e-05
5 | G13A A36C G38U | < 1e-05
6 | G7A G29C G32U U57C C58A | < 1e-05
7 | G59C G63C C70A | < 1e-05
8 | A6C G43A G59C C70U | < 1e-05
9 | C10A A14G G32U A48C G59A | < 1e-05
10 | C8U A36U U45A | < 1e-05
11 | A12U G41A U54C | 0.000963 ± 0.00021
12 | C34A G43A U49G C70G | < 1e-05
13 | G37A G44A | 2.6e-05 ± 1.2e-05
14 | A6U G44U C71A | < 1e-05
15 | C11U G38U C50A | < 1e-05
16 | A39C G44C C68A | < 1e-05
17 | A12C C16U A53C G63A | < 1e-05
18 | A6G G35C U46C | < 1e-05
19 | G40A G51U C68U | < 1e-05
20 | G29U G35C G43C G59A | < 1e-05
21 | G7U G51A U56G | < 1e-05
22 | G40C A64G C71U | 0.00117 ± 0.00019
23 | C8G G43U G51U U54G | < 1e-05
24 | G38A U49A G66U | < 1e-05
25 | G35C C50G A53C | 3.34e-05 ± 8.6e-06
26 | A14C G59C G62C | < 1e-05
27 | A12U A42G C58G | 0.00079 ± 0.00015

Row | Variant | self-cleavage kobs at 10000 uM GlcN6P [s⁻¹]
28 | C34A G66U C67G | < 1e-05
29 | C11A A52G | 3.16e-05 ± 9.6e-06
30 | G35C G44A U46G | < 1e-05
31 | A14C G44C A52C U65A | < 1e-05
32 | G41U A42U U55C C70G | 0.000238 ± 4.7e-05
33 | A36C C61A | < 1e-05
34 | C16A U30C A53C C70G | < 1e-05
35 | C8A A14G C70G | < 1e-05
36 | U31A C58U | 4.45e-05 ± 6.1e-06
37 | C50A G59C C70U | < 1e-05
38 | G35C G43C | < 1e-05
39 | G7A C16G A52U C61A | < 1e-05
40 | A39G U65G C70U | 0.0203 ± 0.0059
41 | A33C A52G U54A | < 1e-05
42 | A36U A52U U65G U69C | < 1e-05
43 | U31A A39G U55C | 0.0297 ± 0.011
44 | C11U U57C | 5.06e-05 ± 1.6e-05
45 | C8U G32C A33C G40C | < 1e-05
46 | C11A A14G C34U G66C | < 1e-05
47 | C16A G43A G44A A48U | < 1e-05
48 | C10G A14G | 3.42e-05 ± 7.2e-06
49 | A48G C58U A64U | < 1e-05
50 | G32C A36C G51C | < 1e-05
51 | G29C U31C G66A | 0.000105 ± 2.5e-05
52 | G32A U45G U47A | 0.000614 ± 0.00014
53 | C58U C61U C71U | < 1e-05
54 | A33C G43A G44C C61A C67U | < 1e-05

Row | Variant | self-cleavage kobs at 10000 uM GlcN6P [s⁻¹]
55 | C10G G32U G44A U54A C68A | < 1e-05
56 | U31A A33G C67A | < 1e-05
57 | A6U A12U A53G C67G | 8.82e-05 ± 1.8e-05
58 | C11A A53C | 2.2e-05 ± 1.1e-05
59 | G38U C50G U55G U57G | 7.32e-05 ± 2e-05
60 | A33U U47A | 9.99e-05 ± 1.7e-05
61 | C16G C50G A52C U55A C70U | 4.88e-05 ± 1.9e-05
62 | A12U A14G U57A | 0.000643 ± 0.00011
63 | G41U C67G C68A | 0.000314 ± 0.00012
64 | G13C C71A | 4.74e-05 ± 1.4e-05
65 | C11A C16G C58U C68A | 0.000263 ± 8.9e-05
66 | C8U U31C A52U | < 1e-05
67 | A12C A39U A48C | 4.14e-05 ± 1e-05
68 | A5U A39C U65G C68U | 4.87e-05 ± 1.6e-05
69 | G44C U65G C67U | 0.000247 ± 8.5e-05
70 | A12G A42C U69A | 0.000102 ± 1.5e-05
71 | A36C U54A G59A | < 1e-05
72 | C19G G37A | 0.00215 ± 0.00044
73 | G7A G35C G41U | < 1e-05
74 | A12G A36C C67G | < 1e-05
75 | G32U U57A | 6.86e-05 ± 8.1e-06
76 | G38A A42G U49A | < 1e-05
77 | G32C G35C U49C C68A | < 1e-05
78 | C10U U55C G62U | < 1e-05
79 | C16G U45G U46A | 0.000584 ± 0.00015

Variants of: B1
Assay: self-cleavage kobs at 2500 uM GlcN6P; higher = faster cleavage; RNA array
Details: with glucosamine-6-phosphate
Summary of the method: as §1

Row | Variant | self-cleavage kobs at 2500 uM GlcN6P [s⁻¹]
80 | A12U A39G U55C | 0.0482 ± 0.021
81 | A6U G35U U45A U57A | < 1e-05
82 | G29U U54A C70A | 6.05e-05 ± 3e-05
83 | G38C U45C C50A G51C C67U | < 1e-05
